Where only a bound is given, the exact number is not on record here.

This note sets out measurements from patent US7897569B2, “Use of HMGB fragments as anti-inflammatory agents” (The Feinstein Institute for Medical Research, priority 2001, dated 2011).

For experiment [1], the system named is RAW 264.7 cells. The experiment in a line: TNF release from RAW 264.7 cells (L929 cytotoxicity bioassay). The format is cell-based, murine. To be noted: for TNF release: 1 μg/ml protein, RAW 264.7 cells. Here is the method:
Murine macrophage-like RAW 264.7 cells (American Type Culture Collection, Rockville, Md.) were cultured in RPMI 1640 medium (Life Technologies, Grand Island N.Y.) supplemented with 10% fetal bovine serum (Gemini, Catabasas, Calif.), penicillin and streptomycin (Life Technologies) and were used at 90% confluence in serum-free Opti-MEM I medium (Life Technologies, Grand Island, N.Y.). […] Polymyxin B was not used in experiments of synthetic peptide studies.
TNF release was measured by a standard murine fibroblast L929 (ATCC, American Type Culture Collection, Rockville, Md.) cytotoxicity bioassay (Bianchi et al., Journal of Experimental Medicine 183:927-936, 1996) with the minimum detectable concentration of 30 pg/ml. Recombinant mouse TNF was obtained from R&D system Inc., (Minneapolis, Minn.). Murine fibroblast L929 cells (ATCC) were cultured in DMEM (Life Technologies, Grand Island, N.Y.) supplemented with 10% fetal bovine serum (Gemini, Catabasas, Calif.), penicillin (50 units/ml) and streptomycin (50 μg/ml) (Life Technologies) in a humidified incubator with 5% CO2.
The effect of the mutants on TNF release from Murine macrophage-like RAW 264.7 cells (ATCC) was carried out as follows. RAW 264.7 cells were cultured in RPMI 1640 medium (Life Technologies, Grand Island N.Y.) supplemented with 10% fetal bovine serum (Gemini, Catabasas, Calif.), penicillin and streptomycin (Life Technologies). Polymyxin (Sigma, St. Louis, Mo.) was added at 100 units/ml to suppress the activity of any contaminating LPS. Cells were incubated with 1 μg/ml of full length (wild-type) HMGB1 and each HMGB1 mutant protein in Opti-MEM I medium for 8 hours, and conditioned supernatants (containing TNF which had been released from the cells) were collected and TNF released from the cells was measured by a standard murine fibroblast L929 (ATCC) cytotoxicity bioassay (Bianchi et al., supra) with the minimum detectable concentration of 30 pg/ml. Recombinant mouse TNF was obtained from R & D Systems Inc., (Minneapolis, Minn.) and used as control in these experiments. Data in FIG. 1 are all presented as mean+SEM unless otherwise indicated. (N=6-10).
To further examine the effect of HMGB1 B box on cytokine production, varying amounts of HMGB1 B box were evaluated for the effects on TNF, IL-1 B, and IL-6 production in murine macrophage-like RAW 264.7 cells. Conditioned media were harvested and measured for TNF, IL-1β and IL-6 levels. TNF levels were measured as described herein, and IL-1β and IL-6 levels were measured using the mouse IL-1β and IL-6 enzyme-linked immunosorbent assay (ELISA) kits (R&D System Inc., Minneapolis, Minn.) and N>5 for all experiments.
The kinetics of B box-induced TNF release was also examined. TNF release and TNF mRNA expression was measured in RAW 264.7 cells induced by B box polypeptide or GST tag polypeptide only used as a control (vector) (10 μg/ml) for 0 to 48 hours. Supernatants were analyzed for TNF protein levels by an L929 cytotoxicity assay (N=3-5) as described herein. For mRNA measurement, cells were plated in 100 mm plate and treated in Opti-MEM I medium containing B box polypeptide or the vector alone for 0, 4, 8, or 24 hours, as indicated in FIG. 2D. The vector only sample was assayed at the 4 hour time point. Cells were scraped off the plate and total RNA was isolated by RNAzol B method in accordance with the manufacturer's instructions (Tel-Test “B”, Inc., Friendswood, Tex.). TNF (287 bp) was measured by RNase protection assay (Ambion, Austin, Tex.). Equal loading and the integrity of RNA was verified by ethidium bromide staining of the RNA sample on agarose-formaldehyde gel. […] TNF mRNA expression was maximal at 4 hours and decreased at 8 and 24 hours. […] A similar study was carried out measuring TNF protein released from RAW 264.7 cells 0, 4, 8, 24, 32 or 48 hours after administration of B box or vector only (GST tag), using the L929 cytotoxicity assay described herein. […] Data are representative of three separate experiments. […]

Experiment [2] relates to NF-kB-dependent ELAM promoter. Nature of the experiment: NF-kB-dependent ELAM promoter luciferase reporter in RAW 264.7 macrophages. The format is cell-based, murine. To be noted: HMGB1 100 ng/ml or B box 10 μg/ml, 5 hours; for level of luciferase stimulation: co-transfected with MyD 88 dominant negative. Here is the method: To examine the effects of HMGB1 or HMGB1 B Box on the NF-kB-dependent ELAM promoter, the following experiment was carried out. RAW 264.7 macrophages were transiently co-transfected with an expression plasmid encoding a murine MyD 88-dominant-negative (DN) mutant (corresponding to amino acids 146-296), or empty vector, plus a luciferase reporter plasmid under the control of the NF-kB-dependent ELAM promoter, as described by Means et al. (J. Immunol. 166:4074-4082, 2001). A portion of the cells were then stimulated with full-length HMBG1 (100 ng/ml), or purified HMGB1 B box (10 μg/ml), for 5 hours. Cells were then harvested and luciferase activity was measured, using standard methods. All transfections were performed in triplicate, repeated at least three times, and a single representative experiment is shown in FIG. 11B.
A general note: Reporter assays use an easily measured gene product as a stand-in for the process of interest.

In experiment [3] the target is T1, human Toll-like receptor 4 (TLR4) (Homo sapiens, UniProt O00206).
T1 construct: expressed in transfected cells; host or cells: CHO (CHO/TLR4, ELAM-CD25 reporter)
Nature of the experiment: CD25 expression in CHO/TLR2 and CHO/TLR4 ELAM-CD25 reporter cells (flow cytometry). The format is cell-based. To be noted: CHO/TLR4 cells versus CHO/TLR2; HMG-1 100 ng/ml or B box 10 μg/ml, 18 hours. Here is the method:
The effect of HMGB1 or HMGB1 B box on NF-kB activation was also examined. CHO reporter cell lines that constitutively express human Toll-like receptor 2 (TLR2) or Toll-like receptor 4 (TLR4) have been previously described (Means et al., J. Immunology, 163:3920-3927, 1999). These reporter lines also contain a stably transfected ELAM-CD25 reporter gene, and express human CD25 on their surface as a consequence of NF-kB activation. CHO/TLR2 and CHO/TLR4 cells were stimulated with IL-1 (10 ng/ml), purified full-length HMG-1 (100 ng/ml), or purified B box (10 μg/ml) for 18 hours. Following stimulation, cells were stained with a PE-labeled anti-CD25 monoclonal antibody and surface expression of CD25 was measured by flow cytometry. The results of this study are shown ib FIG. 11C. Data are expressed as the ratio (fold-activation) of the percent of CD25^+ cells in unstimulated and stimulated cell populations that were gated to exclude the lowest 5% of cells based on mean FL1 fluorescence.

T1 sequence (O00206 24-839): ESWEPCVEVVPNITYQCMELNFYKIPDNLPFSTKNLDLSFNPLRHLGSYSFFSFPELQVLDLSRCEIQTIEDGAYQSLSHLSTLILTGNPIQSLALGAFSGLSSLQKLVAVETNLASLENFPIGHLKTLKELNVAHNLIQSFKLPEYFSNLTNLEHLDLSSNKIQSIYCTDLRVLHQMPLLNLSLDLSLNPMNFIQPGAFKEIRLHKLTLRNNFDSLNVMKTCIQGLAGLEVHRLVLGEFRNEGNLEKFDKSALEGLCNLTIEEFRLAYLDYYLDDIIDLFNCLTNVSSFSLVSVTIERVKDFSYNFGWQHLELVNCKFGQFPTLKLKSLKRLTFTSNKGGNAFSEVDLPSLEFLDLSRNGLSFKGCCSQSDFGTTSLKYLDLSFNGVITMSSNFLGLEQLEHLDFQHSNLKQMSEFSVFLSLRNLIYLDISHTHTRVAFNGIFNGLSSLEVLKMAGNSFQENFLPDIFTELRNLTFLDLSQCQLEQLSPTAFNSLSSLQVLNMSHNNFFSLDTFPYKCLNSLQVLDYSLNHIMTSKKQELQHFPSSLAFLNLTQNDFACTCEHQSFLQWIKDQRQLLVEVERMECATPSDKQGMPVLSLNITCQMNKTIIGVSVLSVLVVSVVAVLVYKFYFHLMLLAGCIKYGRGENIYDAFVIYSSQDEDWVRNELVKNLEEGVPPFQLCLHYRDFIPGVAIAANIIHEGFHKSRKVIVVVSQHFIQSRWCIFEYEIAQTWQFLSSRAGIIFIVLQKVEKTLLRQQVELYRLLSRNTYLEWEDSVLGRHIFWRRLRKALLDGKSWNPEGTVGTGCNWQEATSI

B1: HMGB1: Recombinant full length human HMGB1, GST fusion system, SEQ ID NO:18; recombinant rat HMGB1 used in some experiments (protein)
chain: MGKGDPKKPTGKMSSYAFFVQTCREEHKKKHPDASVNFSEFSKKCSERWKTMSAKEKGKFEDMAKADKARYEREMKTYIPPKGETKKKFKDPNAPKRLPSAFFLFCSEYRPKIKGEHPGLSIGDVAKKLGEMWNNTAADDKQPYEKKAAKLKEKYEKDIAAYRAKGKPDAAKKGVVKAEKSKKKKEEEEDEEDEEDEEEEEDEEDEEDEEEDDDDE
modifications: GST fusion
notes: recombinant rat HMGB1 used in some experiments
Turning to B1, in experiment [1] (8 hours), the TNF release entry was “significantly stimulated TNF release”. Besides, the “level of luciferase stimulation” value in experiment [2] is on record as “decreased”. The luciferase activity result in experiment [2] (not co-transfected with MyD 88 dominant negative) is listed as “stimulated luciferase activity”. In experiment [3], the CD25 expression result is “decreased CD25 expression compared to the CHO/TLR2 samples”.

B2: A box: Human HMGB1 mutant containing only the A box, SEQ ID NO:21 (A box SEQ ID NO:22) (protein)
chain: MGKGDPKKPTGKMSSYAFFVQTCREEHKKKHPDASVNFSEFSKKCSERWKTMSAKEKGKFEDMAKADKARYEREMKTYIPPKGET
For the molecule B2, the TNF release result in experiment [1] (8 hours) is recorded as “only weakly activated TNF release”.

B3: B box: Human HMGB1 mutant containing only the B box, SEQ ID NO:20 (protein)
chain: FKDPNAPKRLPSAFFLFCSEYRPKIKGEHPGLSIGDVAKKLGEMWNNTAADDKQPYEKKAAKLKEKYEKDIAAY
B3: the TNF release result in experiment [1] (8 hours) was “potent activator of monocyte TNF release”. In addition, in experiment [1] (10 μg/ml, 0-48 hours), the “TNF protein expression compared to medium only” value is “stimulated TNF protein expression” and the “time of maximum TNF protein release” value was ≤ 8 h. Also, the “TNF release, dose dependence” value in experiment [1] (B box 0-10 μg/ml, 8 hours) was “increased with increased amounts of B box”. The “level of luciferase stimulation” value in experiment [2] is listed as “This effect was also observed”. Further, the CD25 expression entry in experiment [3] is recorded as “decreased CD25 expression compared to the CHO/TLR2 samples”.
